Measurements: patent US20230107034A1
Where two headings read alike, the source gives them in different places.

Assays:
Experiment in all cases: SPR
monomer = monomer (UniProt P05067)
PFs (AB 1-42 proto) = PFs (AB 1-42 proto) (UniProt P05067)
Ab 1-42 [1] = target: Ab 1-42 (UniProt P05067)
Ab 1-42 [2] = target: Ab 1-42 (UniProt P05067); remark: listed apart in the source

Chain of Ab 1-42 (P05067 672-713): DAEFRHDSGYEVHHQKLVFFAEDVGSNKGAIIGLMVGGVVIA
Chain of monomer (P05067 672-713): as above
Chain of PFs (AB 1-42 proto) (P05067 672-713): as above

| koff (monomer) | koff (PFs (AB 1-42 proto)) | koff (Ab 1-42 [1]) | koff (Ab 1-42 [2]) | Substance |
| --- | --- | --- | --- | --- |
| 0.718 s⁻¹ | 0.000144 s⁻¹ | – | – | Aducanumab |
| – | – | 0.000505 s⁻¹ | 0.000426 s⁻¹ | BAPI |
